Here are results for two substances from PMC10044410.

The target of experiment [1] is GroEL (wild type, recombinant, from pET22b-groL) (E. coli) (UniProt P0A6F5). The experiment can be described thus: SEC.
Experiment [2] addresses FM-CnoX (fluorescein-5-maleimide-labeled CnoX) (E. coli) (UniProt P77395). The experiment is described as follows: other fluorescence titration.
The target is the same in experiment [3]. The experiment is described as follows: fluorescence polarisation.

With “CnoX (wild type, recombinant, from pET22b-cnoX) (from UniProt P77395 1-284) (natural protein)”, the stoichiometry N (CnoX per GroEL double ring) in experiment [1] is 1. As usually defined, the Kd is the concentration at which binding is half-saturated. As for “GroEL (untagged, from pET15b, for quantitative binding studies) (from UniProt P0A6F5 1-548) (natural protein)”, the Kd amounted to 350 nM in experiment [2] and 310 nM in experiment [3].
